# Assay results as given in patent US20240245805A1 (Orna Therapeutics, Inc., priority 2020, published 2024).
# System: HEK293 cells
# Format: cell-based, human
# Details: circular RNA encoding Gluc with the listed IRES (UTR truncated to 675 nt) transfected into HEK293 cells; supernatant after 24 hours
row,Molecule,Expression (luminescence from secreted Gluc protein)
1,"Yancheng osbecks grenadier anchovy picornavirus (nucleic acid, lipid formulation; source: /note=""Description of Unknown: Yancheng osbecks grenadier anchovy picornavirus sequence"") DNA: CCTTAGGGTCTGGAATGCGTCCTTTCTGGGCACTTCCACAATCCTAAGGTAATTTTCAACGCCAGCGATGGAGCGATATCCAAAGAACCTTTATGTTTTAGTTCGTCTTGTATGTTTATAAAATATAAAATTGGGATTAGCAACCCACAAAAACATTTTTGTTATTCTCACCACATGAGAGGGTGGTTAAACCTCTTCGTAACCTATCTTGCTTGATTGGCTACTTGGGCTAGATTTAGGACAACCTCTTTAGCAAGCCTAAATTACTCCTCGTACTTGCACCTGGTAACAGGCGTACCTGGAGGTTACGGTGGCGCTAACTTGGACTTCTCGTTAATTCGTGCAAGTTTAAATGATGCCTATTTTGAATACAAGAAAGTATGATAGTAACTTAGGGCGTGAAGTTCCGCTTAACATAAGGCAGTATAAGTACTAAGATAAGGTGTAAGACCTACCTTAATAACTGTTGTCTTTTCTCATGGTCTTTCCGTGGGAGCCCTTGCTAGGGGTAAAGTTAAGTATTCTCAAATAATTTTTCATTCAAACTCTTTCTCTCTGTTTT",1.57E+06
2,"Human enterovirus C105 (nucleic acid, listed as Enterovirus sp.) DNA: CCCCTAGGATCCACTGGATGTCAGTACACTGGTATCGTGGTACCTTTGTACGCCTGTTTTATACCCCCTTCCCCGCAACTTTAGAAGCATCAAAAGCACCGCTCAATAGTCACCACACCCCCAGTGTGGTTTCGAGCAAGCACTTCTGTTTTCCCGGTTGCGTCCCATATGCTGTGCAAACGGCAAAAAGGGACAATATCGTTACCCGCTTGTATACTACGGGAAACCTAGTACCACCATTGATTGTGTTGAGAGTTGCGCTCATCACCTTTCCCCGGTGTAGCTCAGGCCGATGAGGCTCAGAATCCCCCACAGGTGACTGTGTCTGAGCCTGCGTTGGCGGCCTGCCCTCGCCTTATGGCGTGGGACGCTTGATACATGACATGGTGCGAAGAGTCTACTGTGCTATGCAAGAGTCCTCCGGCCCCTGAATGTGGCTAATCCTAACCACTGATCCCACGCACGCAAACCAGTGTGTAGTGGGTCGTAACGCGCAAGTCGGTGGCGGAACCAACTACTTTGGGTGACCGTGTTTCCTTTATTACTTATTGAATGTTTATGGTGACAATTGTTTGATTCAGTTGTTGCCATTCTCTACATTCATTTACCCAGCATCAAACCAATTGAACTGTTACA",5.49E+05
3,"Tremovirus B (nucleic acid, Tremovirus B) DNA: TTCAAATGGCCCCTGGGTTGATACCCAGTGGTCATTTGGACACTTTGGTAAGGAGGTGTAATTATCCTTCCCATGTGGAACCTAGTGCTTAGGTTTACTTTATATGTTCTTTGTTTGTCCTTTGTACTTTCTATCGGGCAATCTTGTTGTTCAATACAATATGTATTTGAACTGCCTAAGATAAATTCAGTTTTCAACCAACCCCTCTCTTGGGGTTGTGTCTTTCTTTCTTTCTTATATCCTCTTAAGCTGACTTACTTGCTAATCCGACTCCTCGTCAACGGGAGGGTAAAGCAGTATCACTAGGGTATTGTGATGTAGGAGAAAAAGTAAGTAGAGATAGTGCATGTAACGAAAGTGACTTGGTACTTTAAACTCTCTTAATCCCAAAGTGTGGTATTGGTCATGTTGGAGTAGGCTACGGGTGAAACTCCTTCACATTTAGTAATGTGTTCACACGCTAACGCTACGGTAGATGACAGACTAGGTCTTATTCTCAACGTAGGGGGACGGGTGTATGTTCATGATTAGCCACATATTAAGGTTTTGAGGGGCTGAGTCATATAAGTATGTGCATTAATTTCTGGTACTGGTCCCTGGGGACTGGCCCTTTTCTAGGTTGATTTTAGTTTCCCCAATTTTTAAAAACTAATGAGATTTACGAC",1.31E+05
4,"Apodemus agrarius picornavirus strain Longquan-Aa118 (nucleic acid, source: /note=""Description of Unknown: Apodemus agrarius picornavirus strain Longquan-Aa118 sequence"") DNA: TTACTCAGCGTAACTACTCCGGGTTACGTGATGAAGAAGAGGCTACGGAGATTCTCGGGCTACGGCCCTGGAGCCACTCCGGCTCCTAAAGATTTAGAAGTTTGAGCACACCCGCCCACTAGGGCCCCCCATCCAGGGGGGCAACGGGCAAGCACTTCTGTTTCCCCGGTATGATCTGATAGGCTGTAACCACGGCTGAAACAGAGATTATCGTTATCCGCTTCACTACTTCGAGAAGCCTAGTAATGATGGGTGAAATTGAATCCGTTGATCCGGTGTCTCCCCCACACCAGAAACTCATGATGAGGGTTGCCATCCCGGCTACGGCGACGTAGCGGGCATCCCTGCGCTGGCATGAGGCCTCTTAGGAGGACGGATGATATGGATCTTGTCGTGAAGAGCCTATTGAGCTAGTGTCGACTCCTCCGCCCCCGTGAATGCGGCTAATCCTAACCCCGGAGCAGGTGGGTCCAATCCAGGGCCTGGCCTGTCGTAATGCGTAAGTCTGGGACGGAACCGACTACTTTCGGGAAGGCGTGTTTCCATTTGTTCATTATTTGTGTGTTTATGGTGACAACTCTGGGTAAACGTTCTATTGCGTTTATTGAGAGATTCCCAACAATTGAACAAACGAGAACTACCTGTTTTATTAAATTTACACAGAGAAGAATTACA",1.90E+08
5,"Turkey Gallivirus M176 (nucleic acid, listed as Gallivirus sp., lipid formulation) DNA: CCACTCGCACTTCCTGGATAGTGCGTTAGATATGCCCGACATATCGCTTCCAGGACCAAAGCCCCCCTTTTCTCTTTCCCAACCAGCTTCGCCACTCAAGCTGTAATTCCATGTCCGGTCTTTCCGGCCTTAGTATCATGGAAATGTGGTCGTGCTCAAATGAAATTGAGTTGACATTGATCAATGAAAGTTGCACTGAACTTTGCTAAACTGGCTAGCGCCACCTGGTGTGTGCCGTTGGTCTCCTCACATGGTAACATGTGCCAACGGGCCCGAAAGGCTAGTGGGCAATTACCGCTCCAAGGGAGGGGTACCCACCCCGACCTGAACAGCGGTAATGAAGCTCACCTCCCAGGCTCTGACCCCGAGAAGTTTAGTTATTTAGTAGGTGTAATTAGTACTTGTGATTGGTCAATTTGATAGTAGTTTGAAACGTTATGGATGAATGAGTAGACCCCCTGAAGGTACCCCATTACATGGGATCTGATCAGGGCCACATTCTGCGTGTCTCCCCGCACTTGTGGTTAAAACCATGAAAGTTCATCCCAAACAATCTTTTCCTCTTCTTTTTCTTTTAGTGGTGACAACCTACTGGATTGGTGATTACCAATCTGTACTAGTGTTGTATTAAGACTTGTTGTGTGGAGAAAATGGACTCTTTCAAGAAGATTTTTG",4.37E+05
6,"Grusopivirus B (nucleic acid, lipid formulation; Grusopivirus B) GCCATCCGTAGGTTCTGGTAAGGTTCCATCAACTGTTGGGGCGCTAGTTGCTATGACCGCATTCACGGACGGATGATTTATAGTATCACCCAATCCGGGCACAACTTCTTTAGCCACTTCTTCCACATTACTAAGGGCTCTCTTGCCGAGTTTCAACGTCTAGTCCACGACACGGACCTTCCTACTTTTCTATCTTCTTATTTTCTCTACTAAATTGGTATCTGGTACTGAAGATATGCGGATTGTGATTTTGTGCCTGTCTAAACTAACCCTATTCTAGGGTTAGGTGGGTACCATATACTAATGGTGAACAGGATTACCTATGTATCCATTAGTCCCTATGGATCTGGCGACCCACAAACTCATGTTCATAGAGAGGCTAAGCTGAGTGCTCGCCGAATAAGCATTGCTTCAGGTGCCGACTATTGTCTGGAAACCACTCAGTGATAGCTATAGGGGGGGGCCCCGTAGCATCTGCCTTACTGCCTGATAGGGTGGCGGCTGGTCCATGAACATGCAGTAACCAGTTGACTTGAC",2.12E+05
7,"Human enterovirus 109 (nucleic acid, listed as Enterovirus sp.) DNA: TTTAAAACAGCCTGGGGGTTGTTCCCACCCCCAGGGCCCACTGGGCGTTAGTACTCTGGTATCGCGGTACCTTAGTATGCCTGTTTTATGTCTCCTTTCCCCCGCAACTTTAGAAGTAATCAAGTTATGGCTCAACAGTCGCCACACCCCCAGTGTGGTTCCGAGCAAGCACTTCTGTTCCCCGGTTGCGTCTTATATGCTGTGTGAACGGCAGAAAGGGACAATATCGTTATCCGCTCAACTACTACGGGAAGCCTAGTACCACCATGGATTGACCTGAAAGTTGCGTTCAGCGCACCCCCAGCGCAGCTCAGGCCGATGAGGCTCCGAATACCCCACGGGCGACCGTGTCGGAGCCTGCGTTGGCGGCCTGCCCACGTTGCAAAACGTGGGACGCTCATTTCATGACATGGTGCGAAGAGCCTACTGTGCTAGTTGAGAGTCCTCCGGCCCCTGAATGTGGATAATCCTAACCACTGAACCTACGGGCGCAAACCAGCGTCTGGTAGGCCGTAACGCGCAAGTCGGTGGCGGAACCAACTACTTTGGGTGTCCGTGTTTCCTTTTATCTTTTTGAATGTTTATGGTGACAATTGTTGTGTACAGTTGTTACCATAGTTTGCATTCAGAAATAAACCTAACACTTTCCAATTATTTGTTACA",4.92E+05
8,"Grusopivirus A (nucleic acid, lipid formulation; Grusopivirus A) TGCCTGAGTAGGATTGTGAATTTAGGTATGAGAGGGTTAGCCAACCCATTCTGAACCATAATAGATACGTCAATCTGAATCCATCTAAATCTATCTCTTAGGCAGTGGTGCTGAAATATTGCAAGCTACTAGGGATAGACGTGATCTGATTCAAGAACCTATCTAATGTGGTGATGAGAAGGCTAGGTTTATCCATAGTAATCCCTTGTTCTGAACAGGCAATGCACATGCTCTAGTAGGATCTCGGGCTCTGCGATTGGCTCTAAACCGACCAATCCAGGTAGAGGCACTAAGTGTAGGACTTGCCAAAATGTATTACATGCTGGTACCGACTCACTAGTCTGGAAACTCCACACTGAAAGTGACTGGGGGGGGCCCCATCACATTTGTGCTACTGCTTGATAGAGTTGCGGCTGGTCAACTTGGATTGGTATAACCAGTTGAA",1.09E+05
